# Values quoted from earlier work in paper PMC2832019, “In Vitro Metabolic and Mitogenic Signaling of Insulin Glargine and Its Metabolites” (PLoS ONE, 2010).
# Read-outs that look alike come from different tables or passages of the source.
# Assays:
# [1] = in vivo, sc; cited from earlier work
# Saos-2 = system: Saos-2; design: method as in PMID 10866053; conditions: ref [12]; cited from earlier work
# Sprague-Dawley rats = conditions: rat, in vivo; cited from earlier work
# [2] = no reference given, cited from earlier work
# Excerpt: These alterations cause a shift in the isoelectric point from pH 5.4 to 6.7. Following subcutaneous administration as a clear solution of pH 4, insulin gla ...
# [3] = system: BT474, T47D, ZR75-1, MDA-MB231, HCC1937; conditions: ref [15]; cited from earlier work
# Excerpt: (§1) A correlation between IGF1R autophosphorylation and cell proliferation has been recently assumed by Shukla et al., who observed an enhanced growth of the malignant cell line MCF7 after insulin glargine stimulation. The authors have observed 10% and 50% increases of cellular proliferation at 0.31 and about 15 nmol/L. This effect seemed to be linked to activation of the IGF1R and the MAPK pathway, since siRNA knockdown of IGF1R decreased the response. Unfortunately, no dose-response curve of IGF1R autophosphorylation as well as no proliferation data from siRNA knockdown of IR have ...
# MCF-7 and SKBR-3 cells = conditions: ref [48]; cited from earlier work
# Excerpt: as §1
# [4] = system: MCF7 and other tumor cell lines; conditions: ref [14]; cited from earlier work
# Excerpt: as §1
# MCF7 = conditions: ref [15], cited from earlier work
# Excerpt: as §1
# [5] = system: MCF-7 cells, HCT-116 (colorectal cancer) and PC-3 (prostate cancer) cells; conditions: ref [49]; cited from earlier work
# Excerpt: as §1, with “This effect seemed to be linked to activation of the IGF1R and the MAPK pathway, since siRNA knockdown of IGF1R decreased the response.” left out
# [6] = after injection, healthy subjects and patients with type 1 diabetes; ref [52]–[55]; cited from earlier work
# Excerpt: The therapeutic insulin glargine concentrations reported so far are 80- to 200-fold below the total plasma concentrations of IGF-1. […] Therefore, the concentration of free IGF-1 may be within the range of the plasma concentration of insulin glarg ...
# rats = conditions: 2-year life-time, relative to human insulin, ref [59]; cited from earlier work
# Excerpt: In these studies plasma insulin concentrations were 15 to 25 nmol/L, covering parent compound and active metabolites. In consequence, actual glargine concentrations may be overestimated, the extent of which depends on the degree of proteolytic degradation at both the injection site and the serum. Quantitative assessment of the insulin glargine metabolism in humans is evolving, and will bring further clarification.
substance,measurement,setting,value
"[Gly^A21,Arg^B31]insulin [Glargine IM]",amount of metabolite,[1],only in minor quantities
[Asp^B10]insulin,proliferation rate of Saos-2,Saos-2,higher proliferation rate
same,incidence of breast cancer,Sprague-Dawley rats,higher incidence of breast cancer
Human insulin: human insulin produced by recombinant DNA techniques or enzymatic semisynthesis,isoelectric point,[2],5.4 pH
same,response of cell lines to human insulin,[3],did not respond
"[Gly^A21,Arg^B31,Arg^B32]insulin [Glargine]",isoelectric point,[2],6.7 pH
same,solubility,[2]; physiological pH,low solubility at physiological pH
same,mitogenic activity,MCF-7 and SKBR-3 cells,slightly increased mitogenic activity of insulin glargine without statistical significance
same,mitogenic activity relative to human insulin,[4],no evidence for an increased mitogenic activity
same,increase of cellular proliferation,MCF7; at 0.31 nmol/L,10%
same,increase of cellular proliferation,MCF7; at about 15 nmol/L,50%
same,mitogenic potency,[5],increased mitogenic potency
same,peak free serum insulin glargine level,[6],< 200 pmol/L
same,tumor-promoting activity,rats,without evidence of tumor-promoting activity greater than human insulin
